According to PMC6255812:

Columns and labels:
[1] = target: full-length ACA8 (plasma-membrane Ca2+-ATPase ACA8) (UniProt Q9LF79)
[2] = target: full-length ACA8 (plasma-membrane Ca2+-ATPase ACA8) (UniProt Q9LF79); assay: native MS; DDM-solubilised ACA8, apo and with CaM; 200 mM ammonium acetate pH 8.3, 0.018% DDM; nanoESI, spectra at 200 V collision energy
[3] = target: fluorescein-labeled regulatory domain of ACA8 (ACA8RD, residues 1-130) (UniProt Q9LF79); assay: fluorescence polarisation; fluorescence anisotropy, displacement; CaM added to a preformed complex of ACA8core (POPC nanodiscs) and labelled ACA8RD; decrease in anisotropy
fluorescein-labeled regulatory domain of ACA8 (ACA8RD, residues 1-130), sequence (Q9LF79 other isoform, or with tags, fused parts or gaps): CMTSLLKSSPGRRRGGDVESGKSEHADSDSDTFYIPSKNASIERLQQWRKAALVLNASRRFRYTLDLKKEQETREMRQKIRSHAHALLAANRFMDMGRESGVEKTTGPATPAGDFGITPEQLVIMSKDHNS

full-length ACA8 (plasma-membrane Ca2+-ATPase ACA8), sequence (Q9LF79 whole entry, the tested form may be a part): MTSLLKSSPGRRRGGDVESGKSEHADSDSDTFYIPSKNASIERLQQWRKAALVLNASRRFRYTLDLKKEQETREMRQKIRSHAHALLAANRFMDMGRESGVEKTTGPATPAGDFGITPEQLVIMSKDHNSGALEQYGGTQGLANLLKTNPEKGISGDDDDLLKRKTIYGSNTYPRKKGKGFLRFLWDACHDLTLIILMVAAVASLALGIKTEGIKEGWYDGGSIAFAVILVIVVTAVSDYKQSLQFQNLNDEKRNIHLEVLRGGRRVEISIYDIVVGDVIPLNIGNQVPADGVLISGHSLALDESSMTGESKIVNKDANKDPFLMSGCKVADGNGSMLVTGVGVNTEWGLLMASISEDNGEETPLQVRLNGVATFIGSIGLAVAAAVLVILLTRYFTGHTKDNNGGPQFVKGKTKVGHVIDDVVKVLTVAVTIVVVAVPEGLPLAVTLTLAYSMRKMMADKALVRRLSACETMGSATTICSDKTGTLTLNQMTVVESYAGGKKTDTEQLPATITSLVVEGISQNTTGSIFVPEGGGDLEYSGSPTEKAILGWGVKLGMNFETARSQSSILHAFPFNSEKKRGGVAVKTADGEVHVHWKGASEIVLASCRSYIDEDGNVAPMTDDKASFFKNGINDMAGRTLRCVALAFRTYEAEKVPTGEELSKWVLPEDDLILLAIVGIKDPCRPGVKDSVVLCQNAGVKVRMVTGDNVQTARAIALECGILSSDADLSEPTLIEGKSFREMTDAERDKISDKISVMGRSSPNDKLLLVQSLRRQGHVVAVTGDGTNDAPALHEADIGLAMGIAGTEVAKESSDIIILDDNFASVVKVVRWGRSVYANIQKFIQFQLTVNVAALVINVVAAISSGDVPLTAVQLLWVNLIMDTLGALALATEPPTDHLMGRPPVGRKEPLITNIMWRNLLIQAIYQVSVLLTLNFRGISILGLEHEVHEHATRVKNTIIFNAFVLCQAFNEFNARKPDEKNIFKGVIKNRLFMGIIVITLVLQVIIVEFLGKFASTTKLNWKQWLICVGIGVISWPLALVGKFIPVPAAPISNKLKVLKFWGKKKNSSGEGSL

ATPase activity (Baginski assay) of detergent solubilized ACA8 with CaM against basal activity without CaM [1]: 2 fold | stoichiometry N [2]: < 2 | K0.5 [3]: 120 nM
Substance: calmodulin CaM7 from A. thaliana (from UniProt P59220 1-149) (natural protein)
